{"source": "the Human Domainome abundance scans (Beltran et al. 2025)", "parents": {"B1": {"name": "POU domain, class 6, transcription factor 2, residues 609 to 663; numbered along this chain, P78424 (parent)", "chain": "KRRTSFTPQALEILNAHFEKNTHPSGQEMTEIAEKLNYDREVVRVWFCNKRQALK"}}, "note": "± gives the uncertainty stated by the source."}
{"variants_of": "B1", "assay": "abundance fitness (aPCA) (normalised: wild type 0, dead -1); higher = more abundant; growth selection in yeast, the domain comes from the species named", "details": "Homo sapiens"}
{"variant": "KRRTSFTPQALEILNAHFEKNTHPSGQEMTEIAEKLNYDREVVRGWFCNKRQALK", "abundance fitness": "0.03 ± 0.088"}
{"variant": "KRRTSFTPQALEILNAHFEKNTHPSGQEMTEIAEKLNYDREVVRPWFCNKRQALK", "abundance fitness": "-0.706 ± 0.18"}
{"variant": "KRRTSFTPQALEILNAHFEKNTHPSGQEMTEIAEKLNYDREVVRRWFCNKRQALK", "abundance fitness": "0.018 ± 0.098"}
{"variant": "KRRTSFTPQALEILNAHFEKNTHPSGQEMTEIAEKLNYDDEVVRVWFCNKRQALK", "abundance fitness": "0.186 ± 0.12"}
{"variant": "KRRTSFTPQALEYLNAHFEKNTHPSGQEMTEIAEKLNYDREVVRVWFCNKRQALK", "abundance fitness": "0.002 ± 0.15"}
{"variant": "KRRTSFTPQALEFLNAHFEKNTHPSGQEMTEIAEKLNYDREVVRVWFCNKRQALK", "abundance fitness": "-0.113 ± 0.18"}
{"variant": "KRRTSFTPQALEILNAHFEKNTHPSGQEMTEIAEKLNYDREVVPVWFCNKRQALK", "abundance fitness": "-0.421 ± 0.1"}
{"variant": "KRRTSFTPQALEILNAHFEKNTHPSGQEMTEIAEKLNYDREVVCVWFCNKRQALK", "abundance fitness": "-0.076 ± 0.13"}
{"variant": "KRRTSFTPQALEILNAHFEKNTHPSGQEMTEIAEKLNYDREVVMVWFCNKRQALK", "abundance fitness": "-0.075 ± 0.093"}
{"variant": "KRRTSFTPQALWILNAHFEKNTHPSGQEMTEIAEKLNYDREVVRVWFCNKRQALK", "abundance fitness": "-0.233 ± 0.16"}
{"variant": "KRRTSFTPQALGILNAHFEKNTHPSGQEMTEIAEKLNYDREVVRVWFCNKRQALK", "abundance fitness": "-0.105 ± 0.11"}
{"variant": "KRRTSFTPQALPILNAHFEKNTHPSGQEMTEIAEKLNYDREVVRVWFCNKRQALK", "abundance fitness": "-0.724 ± 0.18"}
{"variant": "KPRTSFTPQALEILNAHFEKNTHPSGQEMTEIAEKLNYDREVVRVWFCNKRQALK", "abundance fitness": "-0.118 ± 0.13"}
{"variant": "KRRTSFTPQALEILNAHFEKNTHPSGQEMTEIAEKLNYDREVVRVWFCKKRQALK", "abundance fitness": "0.008 ± 0.13"}
{"variant": "KRRTSFTPQALEILNAHFEKNTHPSGQEMTEIAEKLNYDREVVRVWFCWKRQALK", "abundance fitness": "-0.339 ± 0.11"}
{"variant": "RRRTSFTPQALEILNAHFEKNTHPSGQEMTEIAEKLNYDREVVRVWFCNKRQALK", "abundance fitness": "-0.269 ± 0.12"}
{"variant": "SRRTSFTPQALEILNAHFEKNTHPSGQEMTEIAEKLNYDREVVRVWFCNKRQALK", "abundance fitness": "-0.275 ± 0.14"}
{"variant": "KRRTSFTPQALEILNAHFEKNTHPSGQEMTEIAEKLNYYREVVRVWFCNKRQALK", "abundance fitness": "-0.425 ± 0.075"}
{"variant": "KRRTSFTPQALEIFNAHFEKNTHPSGQEMTEIAEKLNYDREVVRVWFCNKRQALK", "abundance fitness": "-0.877 ± 0.24"}
{"variant": "KRRTSFTPQALEIVNAHFEKNTHPSGQEMTEIAEKLNYDREVVRVWFCNKRQALK", "abundance fitness": "-0.729 ± 0.089"}
{"variant": "KRRTSFTPQALEILNAHFEKNTHPSGQEMTEIAEKLPYDREVVRVWFCNKRQALK", "abundance fitness": "-0.229 ± 0.13"}
{"variant": "KRRTSFTPQALEILNAHFEKNTHPSGQEMTEIAEKLYYDREVVRVWFCNKRQALK", "abundance fitness": "0.127 ± 0.3"}
{"variant": "KRRTSFTPQALEILNAHFEKNTHPSGQEMTEIAEKLNYDRGVVRVWFCNKRQALK", "abundance fitness": "-0.186 ± 0.064"}
{"variant": "KRRTSFTPQALEILNAHFEKNTHPSGQEMTEIAEKLNYDRSVVRVWFCNKRQALK", "abundance fitness": "-0.153 ± 0.064"}
{"variant": "KRRTSFTPQALEILNAHFEKNFHPSGQEMTEIAEKLNYDREVVRVWFCNKRQALK", "abundance fitness": "-0.198 ± 0.13"}
{"variant": "KRRTSFTPQALEILNAHFEKNHHPSGQEMTEIAEKLNYDREVVRVWFCNKRQALK", "abundance fitness": "0.134 ± 0.14"}
{"variant": "KRRTSFTPQALEILNAHFEKNQHPSGQEMTEIAEKLNYDREVVRVWFCNKRQALK", "abundance fitness": "0.084 ± 0.14"}
{"variant": "KRRTSFTPQALEILNAHFEINTHPSGQEMTEIAEKLNYDREVVRVWFCNKRQALK", "abundance fitness": "-0.245 ± 0.14"}
{"variant": "KRRTSFTPQALEILNAHFESNTHPSGQEMTEIAEKLNYDREVVRVWFCNKRQALK", "abundance fitness": "-0.088 ± 0.075"}
{"variant": "KRATSFTPQALEILNAHFEKNTHPSGQEMTEIAEKLNYDREVVRVWFCNKRQALK", "abundance fitness": "-0.136 ± 0.076"}
{"variant": "KRKTSFTPQALEILNAHFEKNTHPSGQEMTEIAEKLNYDREVVRVWFCNKRQALK", "abundance fitness": "-0.009 ± 0.14"}
{"variant": "KRETSFTPQALEILNAHFEKNTHPSGQEMTEIAEKLNYDREVVRVWFCNKRQALK", "abundance fitness": "0.043 ± 0.1"}
{"variant": "KRDTSFTPQALEILNAHFEKNTHPSGQEMTEIAEKLNYDREVVRVWFCNKRQALK", "abundance fitness": "0.054 ± 0.12"}
{"variant": "KRRTSFTPQALEILNAHFEKNTHPSGQEMTEIAEKLNYDREVVRVWFCNKRQSLK", "abundance fitness": "0.005 ± 0.099"}
{"variant": "KRRTSFTPQALEILNAHFEKNTHPSGQEMTEIAEKLNYDREVVRVWFCNKRQPLK", "abundance fitness": "-0.392 ± 0.12"}
{"variant": "KRRTSFTPQALEILNAHFEKNTHPSGQEMTEIAEKLNYDREVVRVWTCNKRQALK", "abundance fitness": "-0.763 ± 0.1"}
{"variant": "KRRTSFTPQALEILNAHFEKNTHPSGQEMTEIAEKLNYDREVVRVWICNKRQALK", "abundance fitness": "-0.782 ± 0.12"}
{"variant": "KRRTSFTPQALEILNAHFEKNTHPSGQCMTEIAEKLNYDREVVRVWFCNKRQALK", "abundance fitness": "-0.324 ± 0.12"}
{"variant": "KRRTSFTPQALEILNAHFEKNTHPSGQDMTEIAEKLNYDREVVRVWFCNKRQALK", "abundance fitness": "-0.047 ± 0.23"}
{"variant": "KRRTSFTPQALEILNAHFEKNTHPSGQPMTEIAEKLNYDREVVRVWFCNKRQALK", "abundance fitness": "-0.998 ± 0.27"}
{"variant": "KRRTSFTPQALEILNAHFEKNTHPSGQEMTEIAEKLNYDREVVRVEFCNKRQALK", "abundance fitness": "-0.91 ± 0.21"}
{"variant": "KRRTSFTPQALEILNAHFEKNTHPSGQEMTEIAEKLNYDREVVRVPFCNKRQALK", "abundance fitness": "-0.801 ± 0.26"}
{"variant": "KRRTSFTPQALEILNAHFEKNTHPSGQEMTEIAEKLNYDREVVRVWFCNARQALK", "abundance fitness": "-0.125 ± 0.097"}
{"variant": "KRRTSFTPQALEILNAHFEKNTHPSGQEMTEIAEKLNYDREVVRVWFCNERQALK", "abundance fitness": "-0.156 ± 0.14"}
{"variant": "KRRTSFTPQALEILNAHFGKNTHPSGQEMTEIAEKLNYDREVVRVWFCNKRQALK", "abundance fitness": "-0.148 ± 0.056"}
{"variant": "KRRTSFTPQALEILNAHFHKNTHPSGQEMTEIAEKLNYDREVVRVWFCNKRQALK", "abundance fitness": "-0.092 ± 0.14"}
{"variant": "KRRTSFTPQALEILNAHFAKNTHPSGQEMTEIAEKLNYDREVVRVWFCNKRQALK", "abundance fitness": "0.046 ± 0.074"}
{"variant": "KRRTSFTPQALEILNAHFCKNTHPSGQEMTEIAEKLNYDREVVRVWFCNKRQALK", "abundance fitness": "-0.085 ± 0.095"}
